Reference: patent publication US20140315986, “APTAMERS THAT BIND TO IL-6 AND THEIR USE IN TREATING OR DIAGNOSING IL-6 MEDIATED CONDITIONS” (Otsuka Pharmaceutical Co., Ltd., published 2014)

B1: 2573-20_780 (ssDNA)
DNA: GGCAGGUUUGGUAUUAACACGUUAAGUCGUGG
modifications: G-G-C1-A-G-G1-Bn-Bn-Pe2-G-G-Nap-A-Bn-Bn-A1-A-C-A1-C1-G-Bn-Bn2-A-A-G-Bn-C1-G-Bn2-G-G (1=2'-OMe, 2=PS)
B2: 2574-49_326 (ssDNA)
DNA: GGGUUAUGUAGCGUGCGUAAGGCGGU
modifications: G-G1-G-Nap1-Nap-A-Nap-G-Nap1-A-G-C-C3-C3-G-U1-G1-C-G-Nap1-A-A-G-G-C-G1-G1-Nap1 (1=2'-OMe)
B3: 2574-49_338 (ssDNA)
DNA: GGGUUAUGUAGCGUGCGUAAGGCGGU
modifications: G-G1-G-Nap1-Nap2-A-Nap-G-Nap1-A-G-C-C3-C3-G1-U1-G1-C-G-Nap1-A-A-G-G-C-G1-G1-Nap1 (1=2'-OMe, 2=PS)
B4: 2574-49_411 (ssDNA)
DNA: GGGUUAUGUAGCGUGCGUAAGGCGGU
modifications: G-G1-G-Nap1-Nap2-A2-Nap2-G-Nap1-A2-G1-C1-C3-C3-G1-U1-G1-C2-G2-Nap1-A2-A2-G2-G1-C2-G1-G1-Nap1 (1=2'-OMe, 2=PS)

Target: IL-6 (mature human interleukin-6) (Homo sapiens, UniProt P05231 SEQ:1-184)
Test: cell_activity
Conditions: tags: untagged, R&D Systems; biotinylated with NHS-PEO4-biotin for SELEX

Sequence of IL-6 (mature human interleukin-6) (P05231 29-212): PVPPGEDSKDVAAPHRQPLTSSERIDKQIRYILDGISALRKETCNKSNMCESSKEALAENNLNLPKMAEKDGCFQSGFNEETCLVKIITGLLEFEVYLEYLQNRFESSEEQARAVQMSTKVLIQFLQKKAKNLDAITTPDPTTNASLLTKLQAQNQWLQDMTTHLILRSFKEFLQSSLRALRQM

Row | Binder | IC50 [pM]
1 | B1 | 87
2 | B2 | 110
3 | B3 | 20
4 | B4 | 5800
